In article PMC4844822 one finds stoichiometry N data, which are given here for 1 molecule.

The stoichiometry N is a count of units in the complex or per binding partner.

The assay concerns the target T1, oxidized wild type Prdx6 (H2O2-treated, over-oxidized protein) (human), P30041.
T1 chain: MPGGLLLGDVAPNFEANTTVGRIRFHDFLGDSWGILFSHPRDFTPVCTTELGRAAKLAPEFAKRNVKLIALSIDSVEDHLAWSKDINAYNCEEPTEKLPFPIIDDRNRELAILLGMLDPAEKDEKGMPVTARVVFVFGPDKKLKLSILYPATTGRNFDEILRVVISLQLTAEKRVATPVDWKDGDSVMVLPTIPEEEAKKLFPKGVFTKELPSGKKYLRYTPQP
The experiment in a line: AUC. The note with it: remark: other sources report otherwise.

B1: oxidized wild type Prdx6 (H2O2-treated, over-oxidized protein), P30041 1-224 (natural protein)
chain: MPGGLLLGDVAPNFEANTTVGRIRFHDFLGDSWGILFSHPRDFTPVCTTELGRAAKLAPEFAKRNVKLIALSIDSVEDHLAWSKDINAYNCEEPTEKLPFPIIDDRNRELAILLGMLDPAEKDEKGMPVTARVVFVFGPDKKLKLSILYPATTGRNFDEILRVVISLQLTAEKRVATPVDWKDGDSVMVLPTIPEEEAKKLFPKGVFTKELPSGKKYLRYTPQP
modifications: here or on the partner: C47 over-oxidized (-SOOH/-SOOOH) by H2O2 treatment; C47 over-oxidized (-SOOH/-SOOOH) by H2O2 treatment
As for B1, the stoichiometry N was 2.
